According to patent publication US20240327522A1 (Genentech, published 2024):

Tests used:
human αvβ1 = biological target: T1, human αvβ1 (human, UniProt P06756 31-992; P05556 21-728); assay: SPR binding assay, sample hu.aVb1,3,5,6
T1 construct: Counter-screen integrin; construct not described; also called hu.aVb1; αVP1

human αvβ3 = biological target: T2, human αvβ3 (human, UniProt P06756 31-992; P05106 27-718); assay: SPR binding assay, sample hu.aVb1,3,5,6
T2 construct: Counter-screen integrin; construct not described; also called hu.aVb3; αV03
T2 sequence (P05106 27-718 limits assumed, one chain of several): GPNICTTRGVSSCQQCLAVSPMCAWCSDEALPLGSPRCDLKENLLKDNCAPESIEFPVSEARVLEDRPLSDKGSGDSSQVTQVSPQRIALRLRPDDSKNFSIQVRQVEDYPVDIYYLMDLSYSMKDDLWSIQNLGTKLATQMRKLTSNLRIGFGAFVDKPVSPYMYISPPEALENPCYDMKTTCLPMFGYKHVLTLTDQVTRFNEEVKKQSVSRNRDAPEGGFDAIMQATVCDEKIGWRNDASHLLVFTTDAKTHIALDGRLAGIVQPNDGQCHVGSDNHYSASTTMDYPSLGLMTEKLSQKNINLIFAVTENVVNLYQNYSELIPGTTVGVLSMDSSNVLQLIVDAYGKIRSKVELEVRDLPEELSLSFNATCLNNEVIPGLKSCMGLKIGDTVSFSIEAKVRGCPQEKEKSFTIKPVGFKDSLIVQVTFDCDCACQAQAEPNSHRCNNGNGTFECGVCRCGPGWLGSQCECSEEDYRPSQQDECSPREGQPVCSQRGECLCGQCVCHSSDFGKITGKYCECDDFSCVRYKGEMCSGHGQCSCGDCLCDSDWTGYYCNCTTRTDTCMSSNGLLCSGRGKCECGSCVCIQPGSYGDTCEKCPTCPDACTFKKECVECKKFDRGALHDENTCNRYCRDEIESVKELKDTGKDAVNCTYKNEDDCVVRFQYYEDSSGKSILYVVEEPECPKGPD

human αvβ5 = biological target: T3, human αvβ5 (human, UniProt P06756 31-992; P18084 24-719); assay: SPR binding assay, sample hu.aVb1,3,5,6
T3 construct: Counter-screen integrin; construct not described; also called hu.aVb5; αV05
T3 sequence (P18084 24-719 limits assumed, one chain of several): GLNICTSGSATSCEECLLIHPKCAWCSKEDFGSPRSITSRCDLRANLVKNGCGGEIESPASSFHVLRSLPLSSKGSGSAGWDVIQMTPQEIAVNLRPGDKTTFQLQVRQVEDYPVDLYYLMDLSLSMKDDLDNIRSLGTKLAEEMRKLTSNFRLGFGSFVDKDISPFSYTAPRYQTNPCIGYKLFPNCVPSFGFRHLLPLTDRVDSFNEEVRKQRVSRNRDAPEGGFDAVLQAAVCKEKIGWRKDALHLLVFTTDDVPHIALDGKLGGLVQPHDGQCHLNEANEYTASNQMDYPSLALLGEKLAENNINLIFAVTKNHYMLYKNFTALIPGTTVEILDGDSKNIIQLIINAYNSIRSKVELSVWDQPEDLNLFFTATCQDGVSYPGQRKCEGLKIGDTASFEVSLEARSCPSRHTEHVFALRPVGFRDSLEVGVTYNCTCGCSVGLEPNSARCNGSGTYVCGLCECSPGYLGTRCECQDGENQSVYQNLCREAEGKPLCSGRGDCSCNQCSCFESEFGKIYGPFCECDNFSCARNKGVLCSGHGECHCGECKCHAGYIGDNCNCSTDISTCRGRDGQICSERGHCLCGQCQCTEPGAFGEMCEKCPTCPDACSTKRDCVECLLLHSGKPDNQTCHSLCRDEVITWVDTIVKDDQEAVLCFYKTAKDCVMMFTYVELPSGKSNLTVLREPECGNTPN

human αvβ6 = biological target: T4, human αvβ6 (human, UniProt P06756 31-992; P18564 22-709); assay: SPR binding assay, sample hu.aVb1,3,5,6
T4 construct: Counter-screen integrin; construct not described; also called hu.aVb6; αV06
T4 sequence (P18564 22-709 limits assumed, one chain of several): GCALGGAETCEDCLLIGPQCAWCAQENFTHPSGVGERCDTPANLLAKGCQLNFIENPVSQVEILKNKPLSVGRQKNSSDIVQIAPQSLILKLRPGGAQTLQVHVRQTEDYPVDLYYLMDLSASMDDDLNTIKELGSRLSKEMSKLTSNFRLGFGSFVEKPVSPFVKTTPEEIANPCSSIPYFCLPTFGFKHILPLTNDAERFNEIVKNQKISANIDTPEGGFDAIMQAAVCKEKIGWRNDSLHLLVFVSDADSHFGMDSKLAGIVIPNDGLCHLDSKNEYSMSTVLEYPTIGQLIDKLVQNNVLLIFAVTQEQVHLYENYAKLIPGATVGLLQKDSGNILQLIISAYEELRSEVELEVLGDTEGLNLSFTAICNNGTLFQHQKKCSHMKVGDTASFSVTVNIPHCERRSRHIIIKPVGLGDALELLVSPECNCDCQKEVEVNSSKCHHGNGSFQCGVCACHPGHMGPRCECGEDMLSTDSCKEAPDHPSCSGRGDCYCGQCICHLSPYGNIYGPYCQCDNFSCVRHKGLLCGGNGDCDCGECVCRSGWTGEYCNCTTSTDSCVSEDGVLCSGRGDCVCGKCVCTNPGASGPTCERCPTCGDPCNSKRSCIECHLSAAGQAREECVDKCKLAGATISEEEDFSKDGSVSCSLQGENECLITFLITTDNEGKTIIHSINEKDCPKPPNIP

[1] = biological target: T5, recombinant human αvβ8 protein (PARS-17102) (human); assay: SPR binding assay, experiment 1, antibody as ligand, aVb8 as sample
T5 construct: also called hu.aVb8.17102; not shown: C-terminal acid/basic coils and any purification tags
T5 alpha: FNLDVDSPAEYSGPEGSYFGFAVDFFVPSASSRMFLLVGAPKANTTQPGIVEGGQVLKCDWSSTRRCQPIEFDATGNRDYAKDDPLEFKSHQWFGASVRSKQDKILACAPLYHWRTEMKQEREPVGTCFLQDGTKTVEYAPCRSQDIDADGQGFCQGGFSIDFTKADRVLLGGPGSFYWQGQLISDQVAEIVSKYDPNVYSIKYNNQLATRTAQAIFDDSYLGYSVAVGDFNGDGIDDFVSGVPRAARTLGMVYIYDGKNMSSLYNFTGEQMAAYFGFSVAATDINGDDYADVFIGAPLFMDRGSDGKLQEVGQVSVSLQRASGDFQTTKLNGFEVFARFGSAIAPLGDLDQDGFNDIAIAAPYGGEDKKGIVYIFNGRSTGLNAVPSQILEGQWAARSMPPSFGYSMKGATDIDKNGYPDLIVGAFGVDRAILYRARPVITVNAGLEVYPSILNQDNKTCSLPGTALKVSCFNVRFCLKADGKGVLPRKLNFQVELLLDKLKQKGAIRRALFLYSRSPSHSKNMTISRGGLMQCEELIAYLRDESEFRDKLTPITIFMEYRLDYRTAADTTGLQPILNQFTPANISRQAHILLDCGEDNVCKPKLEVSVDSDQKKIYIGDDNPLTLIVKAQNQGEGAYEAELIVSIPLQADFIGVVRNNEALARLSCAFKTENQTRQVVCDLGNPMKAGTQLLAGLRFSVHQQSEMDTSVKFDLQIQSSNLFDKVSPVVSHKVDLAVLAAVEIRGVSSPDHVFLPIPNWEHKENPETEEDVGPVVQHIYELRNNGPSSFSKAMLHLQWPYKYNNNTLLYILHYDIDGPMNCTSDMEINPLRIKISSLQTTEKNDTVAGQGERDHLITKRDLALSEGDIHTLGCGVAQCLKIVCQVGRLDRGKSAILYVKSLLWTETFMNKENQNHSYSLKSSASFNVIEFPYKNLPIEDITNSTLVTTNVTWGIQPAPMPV
T5 beta: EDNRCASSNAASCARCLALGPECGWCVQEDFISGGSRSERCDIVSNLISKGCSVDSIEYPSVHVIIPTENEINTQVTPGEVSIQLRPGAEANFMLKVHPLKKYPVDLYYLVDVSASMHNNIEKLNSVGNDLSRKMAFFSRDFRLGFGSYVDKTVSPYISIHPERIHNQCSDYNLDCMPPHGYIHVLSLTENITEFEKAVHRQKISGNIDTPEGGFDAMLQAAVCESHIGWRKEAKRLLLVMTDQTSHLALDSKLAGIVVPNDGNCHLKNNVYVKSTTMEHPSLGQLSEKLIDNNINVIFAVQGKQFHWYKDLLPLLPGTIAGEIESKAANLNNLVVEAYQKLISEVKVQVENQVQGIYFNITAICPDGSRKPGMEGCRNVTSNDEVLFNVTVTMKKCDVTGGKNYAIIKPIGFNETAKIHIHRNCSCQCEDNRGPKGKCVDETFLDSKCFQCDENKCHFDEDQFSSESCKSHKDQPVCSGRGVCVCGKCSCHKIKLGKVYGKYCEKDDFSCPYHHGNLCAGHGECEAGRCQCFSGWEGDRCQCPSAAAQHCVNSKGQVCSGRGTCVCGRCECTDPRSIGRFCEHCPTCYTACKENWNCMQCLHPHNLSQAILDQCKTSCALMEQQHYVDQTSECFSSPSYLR

[2] = biological target: T6, recombinant mouse αvβ8 protein (PARS-17103) (murine, UniProt P43406 31-988; Q0VBD0 43-681, limits assumed); assay: as above
T6 construct: Made in house; also called mu.aVb8.17103
T6 sequence (P43406 31-988 limits assumed, chain 1 of 2): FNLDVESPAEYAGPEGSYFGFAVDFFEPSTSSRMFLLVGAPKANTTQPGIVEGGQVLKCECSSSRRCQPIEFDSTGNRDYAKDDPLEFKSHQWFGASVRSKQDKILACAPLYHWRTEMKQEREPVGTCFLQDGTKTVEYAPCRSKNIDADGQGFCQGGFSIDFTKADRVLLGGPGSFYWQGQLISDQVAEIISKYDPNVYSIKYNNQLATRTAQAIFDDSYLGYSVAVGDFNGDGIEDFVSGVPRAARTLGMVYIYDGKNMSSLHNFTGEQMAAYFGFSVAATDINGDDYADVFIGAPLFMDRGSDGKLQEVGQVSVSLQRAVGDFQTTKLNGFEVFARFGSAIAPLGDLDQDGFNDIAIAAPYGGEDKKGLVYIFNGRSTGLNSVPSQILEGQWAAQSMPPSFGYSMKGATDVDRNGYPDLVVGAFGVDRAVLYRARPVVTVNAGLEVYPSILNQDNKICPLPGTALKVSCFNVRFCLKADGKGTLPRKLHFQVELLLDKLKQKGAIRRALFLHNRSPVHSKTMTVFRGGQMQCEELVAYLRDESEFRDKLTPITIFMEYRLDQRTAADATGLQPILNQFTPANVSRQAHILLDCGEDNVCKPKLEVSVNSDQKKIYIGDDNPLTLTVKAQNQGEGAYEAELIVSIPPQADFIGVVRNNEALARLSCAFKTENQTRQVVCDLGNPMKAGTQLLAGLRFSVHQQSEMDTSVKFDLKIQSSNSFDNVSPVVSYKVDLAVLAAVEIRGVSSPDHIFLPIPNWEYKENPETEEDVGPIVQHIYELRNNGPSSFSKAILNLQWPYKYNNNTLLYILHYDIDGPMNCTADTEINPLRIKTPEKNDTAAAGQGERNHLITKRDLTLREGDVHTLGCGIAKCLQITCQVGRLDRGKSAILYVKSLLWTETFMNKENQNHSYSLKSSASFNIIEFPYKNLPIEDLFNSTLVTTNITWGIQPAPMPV
T6 sequence (Q0VBD0 43-681 limits assumed, chain 2 of 2): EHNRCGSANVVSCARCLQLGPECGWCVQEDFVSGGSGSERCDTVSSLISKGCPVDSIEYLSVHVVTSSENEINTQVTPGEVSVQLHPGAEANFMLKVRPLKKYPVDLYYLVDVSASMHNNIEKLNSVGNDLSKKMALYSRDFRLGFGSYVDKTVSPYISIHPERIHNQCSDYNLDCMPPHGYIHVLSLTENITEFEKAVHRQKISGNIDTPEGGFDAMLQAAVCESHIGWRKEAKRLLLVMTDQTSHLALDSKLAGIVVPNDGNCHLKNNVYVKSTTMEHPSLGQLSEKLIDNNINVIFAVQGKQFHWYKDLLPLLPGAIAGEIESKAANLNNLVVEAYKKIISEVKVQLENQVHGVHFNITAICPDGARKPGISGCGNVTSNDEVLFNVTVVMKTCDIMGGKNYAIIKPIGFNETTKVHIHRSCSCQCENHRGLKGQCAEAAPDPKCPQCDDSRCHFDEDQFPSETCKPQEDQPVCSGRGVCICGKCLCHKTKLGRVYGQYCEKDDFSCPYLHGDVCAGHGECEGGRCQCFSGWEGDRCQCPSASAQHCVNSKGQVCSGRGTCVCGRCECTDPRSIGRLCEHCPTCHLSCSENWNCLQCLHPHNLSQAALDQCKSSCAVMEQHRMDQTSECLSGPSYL

[3] = biological target: T7, recombinant cynomolgus monkey αvβ8 protein (PARS-19393) (cynomolgus monkey, UniProt A0A2K5WCD3 31-992; G7P0S0 43-684); assay: as above
T7 construct: also called cyno.aVb8-19393; cyno.aVb8

[4] = biological target: T5, recombinant human αvβ8 protein …; assay: SPR binding assay, experiment 2, antibody as ligand, aVb8 as sample
[5] = biological target: T6, recombinant mouse αvβ8 protein …; assay: as above
cyno.aVb8.13650 = biological target: T8, cyno.aVb8.13650 (cynomolgus, UniProt A0A2K5WCD3 31-992; G7P0S0 43-684); assay: as above
T8 construct: Carries another lot/construct number than cyno.aVb8-19393; kept apart; also called cynomolgus αvβ8

T1 sequence (P05556 21-728 limits assumed, one chain of several): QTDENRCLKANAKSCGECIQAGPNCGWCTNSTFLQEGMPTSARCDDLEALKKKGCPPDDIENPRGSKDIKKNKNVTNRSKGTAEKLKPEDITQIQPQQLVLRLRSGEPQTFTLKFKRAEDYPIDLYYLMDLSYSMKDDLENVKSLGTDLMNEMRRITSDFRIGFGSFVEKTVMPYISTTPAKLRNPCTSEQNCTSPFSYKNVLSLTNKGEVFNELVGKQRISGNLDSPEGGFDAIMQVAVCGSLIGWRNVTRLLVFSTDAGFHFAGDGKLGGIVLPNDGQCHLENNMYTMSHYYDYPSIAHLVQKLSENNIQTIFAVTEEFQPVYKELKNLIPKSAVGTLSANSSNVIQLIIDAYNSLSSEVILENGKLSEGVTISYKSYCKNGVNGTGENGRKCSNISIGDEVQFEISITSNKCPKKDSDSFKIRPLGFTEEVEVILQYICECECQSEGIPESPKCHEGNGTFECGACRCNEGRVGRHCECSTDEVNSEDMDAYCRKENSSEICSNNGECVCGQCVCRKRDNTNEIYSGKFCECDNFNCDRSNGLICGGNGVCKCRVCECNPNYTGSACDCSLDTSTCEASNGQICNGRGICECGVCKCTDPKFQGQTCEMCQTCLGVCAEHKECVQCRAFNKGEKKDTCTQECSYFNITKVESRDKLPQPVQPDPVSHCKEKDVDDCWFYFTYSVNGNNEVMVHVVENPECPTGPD

binding result (human αvβ1): no binding | binding result (human αvβ3): no binding | binding result (human αvβ5): no binding | binding result (human αvβ6): no binding | Kd [1]: 10.1 nM | koff [1]: 0.000283 s⁻¹ | kon [1]: 28000 M⁻¹ s⁻¹ | Kd [2]: 9.91 nM | koff [2]: 0.000311 s⁻¹ | kon [2]: 31400 M⁻¹ s⁻¹ | Kd [3]: 11.1 nM | koff [3]: 0.000284 s⁻¹ | kon [3]: 25500 M⁻¹ s⁻¹ | Kd [4]: 2.95 nM | koff [4]: 0.000195 s⁻¹ | kon [4]: 66100 M⁻¹ s⁻¹ | Kd [5]: 3.42 nM | koff [5]: 0.000236 s⁻¹ | kon [5]: 69100 M⁻¹ s⁻¹ | Kd (cyno.aVb8.13650): 12.9 nM | koff (cyno.aVb8.13650): 0.000443 s⁻¹ | kon (cyno.aVb8.13650): 34500 M⁻¹ s⁻¹
B1: Hu.aVb8-92.H13L1 (aVb8-92.H13L1.hIgG1.LALAPG) (antibody, V domains shown)
VH: EQQLLESGGGLVQPGGSLRLSCAASGFSLSSYAMGWVRQAPGKGLEWIGVIRKDDNTYYGNWAKGRFTISRDSSKNTLYLQMNSLRAEDTAVYFCARALNTYVGFPYFNIWGPGTLVTVSS
VL: DAVLTQSPDSLAVSLGERATINCQSIKSVGDNKWLAWYQQKPGQPPKLLIYDASDLASGVPDRFSGSGSRTDFTLTISSLQAEDVAVYYCAGSVSSGDSGFGGGTKVEIKR
notes: Human IgG1 LALAPG; also called PARS-20463-65 (IH) aVb8-92.H13L1.hIgG1.LALAPG; humanized αvβ8-92
